# Data reported in IntAct's records for PubMed 15105431.
# B1: T-cell surface antigen CD2 (Homo sapiens), P06729 (parent)
# chain: MSFPCKFVASFLLIFNVSSKGAVSKEITNALETWGALGQDINLDIPSFQMSDDIDDIKWEKTSDKKKIAQFRKEKETFKEKDTYKLFKNGTLKIKHLKTDDQDIYKVSIYDTKGKNVLEKIFDLKIQERVSKPKISWTCINTTLTCEVMNGTDPELNLYQDGKHLKLSQRVITHKWTTSLSAKFKCTAGNKVSKESSVEPVSCPEKGLDIYLIIGICGGGSLLMVFVALLVFYITKRKKQRSRRNDEELETRAHRVATEERGRKPHQIPASTPQNPATSQHPPPPPGHRSQAPSHRPPPPGHRVQHQPQKRPPAPSGTQVHQQKGPPLPRPRVQPKPPHGAAENSLSPSSN
# partner: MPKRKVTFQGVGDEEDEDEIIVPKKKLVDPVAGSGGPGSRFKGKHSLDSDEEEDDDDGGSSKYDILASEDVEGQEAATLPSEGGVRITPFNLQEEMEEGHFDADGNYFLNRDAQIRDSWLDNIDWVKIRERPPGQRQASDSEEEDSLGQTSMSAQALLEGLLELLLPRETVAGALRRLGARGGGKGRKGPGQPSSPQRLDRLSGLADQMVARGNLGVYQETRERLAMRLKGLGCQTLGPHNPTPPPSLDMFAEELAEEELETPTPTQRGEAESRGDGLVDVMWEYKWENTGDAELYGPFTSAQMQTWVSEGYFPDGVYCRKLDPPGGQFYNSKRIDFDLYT
# Variants of: B1
# Details: with cd2b2_human CD2BP2, O95400
row,effect of a mutation on the interaction,Variant
1,decreasing interaction strength,MSFPCKFVASFLLIFNVSSKGAVSKEITNALETWGALGQDINLDIPSFQMSDDIDDIKWEKTSDKKKIAQFRKEKETFKEKDTYKLFKNGTLKIKHLKTDDQDIYKVSIYDTKGKNVLEKIFDLKIQERVSKPKISWTCINTTLTCEVMNGTDPELNLYQDGKHLKLSQRVITHKWTTSLSAKFKCTAGNKVSKESSVEPVSCPEKGLDIYLIIGICGGGSLLMVFVALLVFYITKRKKQRSRRNDEELETRAHRVATEERGRKPHQIPASTPQNPATSQHPPPPPGHRSQAPSDRPPPPGHRVQHQPQKRPPAPSGTQVHQQKGPPLPRPRVQPKPPHGAAENSLSPSSN [H295D]
2,decreasing interaction strength,MSFPCKFVASFLLIFNVSSKGAVSKEITNALETWGALGQDINLDIPSFQMSDDIDDIKWEKTSDKKKIAQFRKEKETFKEKDTYKLFKNGTLKIKHLKTDDQDIYKVSIYDTKGKNVLEKIFDLKIQERVSKPKISWTCINTTLTCEVMNGTDPELNLYQDGKHLKLSQRVITHKWTTSLSAKFKCTAGNKVSKESSVEPVSCPEKGLDIYLIIGICGGGSLLMVFVALLVFYITKRKKQRSRRNDEELETRAHRVATEERGRKPHQIPASTPQNPATSQHPPPPPGHRSQAPSHRPPPKGHRVQHQPQKRPPAPSGTQVHQQKGPPLPRPRVQPKPPHGAAENSLSPSSN [P300K]
3,disrupting interaction strength,MSFPCKFVASFLLIFNVSSKGAVSKEITNALETWGALGQDINLDIPSFQMSDDIDDIKWEKTSDKKKIAQFRKEKETFKEKDTYKLFKNGTLKIKHLKTDDQDIYKVSIYDTKGKNVLEKIFDLKIQERVSKPKISWTCINTTLTCEVMNGTDPELNLYQDGKHLKLSQRVITHKWTTSLSAKFKCTAGNKVSKESSVEPVSCPEKGLDIYLIIGICGGGSLLMVFVALLVFYITKRKKQRSRRNDEELETRAHRVATEERGRKPHQIPASTPQNPATSQHPPPPPGHRSQAPSHRPPRPGHRVQHQPQKRPPAPSGTQVHQQKGPPLPRPRVQPKPPHGAAENSLSPSSN [P299R]
4,disrupting interaction strength,MSFPCKFVASFLLIFNVSSKGAVSKEITNALETWGALGQDINLDIPSFQMSDDIDDIKWEKTSDKKKIAQFRKEKETFKEKDTYKLFKNGTLKIKHLKTDDQDIYKVSIYDTKGKNVLEKIFDLKIQERVSKPKISWTCINTTLTCEVMNGTDPELNLYQDGKHLKLSQRVITHKWTTSLSAKFKCTAGNKVSKESSVEPVSCPEKGLDIYLIIGICGGGSLLMVFVALLVFYITKRKKQRSRRNDEELETRAHRVATEERGRKPHQIPASTPQNPATSQHPPPPPGHRSQAPSHEPPPPGHRVQHQPQKRPPAPSGTQVHQQKGPPLPRPRVQPKPPHGAAENSLSPSSN [R296E]
5,disrupting interaction strength,MSFPCKFVASFLLIFNVSSKGAVSKEITNALETWGALGQDINLDIPSFQMSDDIDDIKWEKTSDKKKIAQFRKEKETFKEKDTYKLFKNGTLKIKHLKTDDQDIYKVSIYDTKGKNVLEKIFDLKIQERVSKPKISWTCINTTLTCEVMNGTDPELNLYQDGKHLKLSQRVITHKWTTSLSAKFKCTAGNKVSKESSVEPVSCPEKGLDIYLIIGICGGGSLLMVFVALLVFYITKRKKQRSRRNDEELETRAHRVATEERGRKPHQIPASTPQNPATSQHPPPPPGHRSQAPSHRPPPPGHGVQHQPQKRPPAPSGTQVHQQKGPPLPRPRVQPKPPHGAAENSLSPSSN [R303G]
6,decreasing interaction strength,MSFPCKFVASFLLIFNVSSKGAVSKEITNALETWGALGQDINLDIPSFQMSDDIDDIKWEKTSDKKKIAQFRKEKETFKEKDTYKLFKNGTLKIKHLKTDDQDIYKVSIYDTKGKNVLEKIFDLKIQERVSKPKISWTCINTTLTCEVMNGTDPELNLYQDGKHLKLSQRVITHKWTTSLSAKFKCTAGNKVSKESSVEPVSCPEKGLDIYLIIGICGGGSLLMVFVALLVFYITKRKKQRSRRNDEELETRAHRVATEERGRKPHQIPASTPQNPATSQHPPPPPGHRSQAPSHRPPPPGDRVQHQPQKRPPAPSGTQVHQQKGPPLPRPRVQPKPPHGAAENSLSPSSN [H302D]
7,decreasing interaction strength,MSFPCKFVASFLLIFNVSSKGAVSKEITNALETWGALGQDINLDIPSFQMSDDIDDIKWEKTSDKKKIAQFRKEKETFKEKDTYKLFKNGTLKIKHLKTDDQDIYKVSIYDTKGKNVLEKIFDLKIQERVSKPKISWTCINTTLTCEVMNGTDPELNLYQDGKHLKLSQRVITHKWTTSLSAKFKCTAGNKVSKESSVEPVSCPEKGLDIYLIIGICGGGSLLMVFVALLVFYITKRKKQRSRRNDEELETRAHRVATEERGRKPHQIPASTPQNPATSQHPPPPPGHRSQAPSHRPPPPYHRVQHQPQKRPPAPSGTQVHQQKGPPLPRPRVQPKPPHGAAENSLSPSSN [G301Y]
8,decreasing interaction strength,MSFPCKFVASFLLIFNVSSKGAVSKEITNALETWGALGQDINLDIPSFQMSDDIDDIKWEKTSDKKKIAQFRKEKETFKEKDTYKLFKNGTLKIKHLKTDDQDIYKVSIYDTKGKNVLEKIFDLKIQERVSKPKISWTCINTTLTCEVMNGTDPELNLYQDGKHLKLSQRVITHKWTTSLSAKFKCTAGNKVSKESSVEPVSCPEKGLDIYLIIGICGGGSLLMVFVALLVFYITKRKKQRSRRNDEELETRAHRVATEERGRKPHQIPASTPQNPATSQHPPPPPGHRSQAPSHRPPPPFHRVQHQPQKRPPAPSGTQVHQQKGPPLPRPRVQPKPPHGAAENSLSPSSN [G301F]
